Test results taken from publication PMC10250233.
“And” between values parts separate entries of the source, which are not always exact repeats. Identical values can stand only once.

Columns and labels:
Test in all cases: fluorescence anisotropy
[1] = molecular target: RPA WT (RPA70-RPA32-RPA14) (human) (UniProt P27694+P15927+P35244); conditions: FA: 200 mM NaCl, KCl or LiCl, 20 mM HEPES pH 7.4, 1 mM DTT, 22-25 C, 375 or 750 pM oligo, Kd,app +/- SEM; EMSA: 20 mM HEPES pH 7.4, 200 mM KCl, 1 nM 32P oligo
Chain of RPA WT (RPA70-RPA32-RPA14) (human) (P27694 whole entry, chain 1 of 3): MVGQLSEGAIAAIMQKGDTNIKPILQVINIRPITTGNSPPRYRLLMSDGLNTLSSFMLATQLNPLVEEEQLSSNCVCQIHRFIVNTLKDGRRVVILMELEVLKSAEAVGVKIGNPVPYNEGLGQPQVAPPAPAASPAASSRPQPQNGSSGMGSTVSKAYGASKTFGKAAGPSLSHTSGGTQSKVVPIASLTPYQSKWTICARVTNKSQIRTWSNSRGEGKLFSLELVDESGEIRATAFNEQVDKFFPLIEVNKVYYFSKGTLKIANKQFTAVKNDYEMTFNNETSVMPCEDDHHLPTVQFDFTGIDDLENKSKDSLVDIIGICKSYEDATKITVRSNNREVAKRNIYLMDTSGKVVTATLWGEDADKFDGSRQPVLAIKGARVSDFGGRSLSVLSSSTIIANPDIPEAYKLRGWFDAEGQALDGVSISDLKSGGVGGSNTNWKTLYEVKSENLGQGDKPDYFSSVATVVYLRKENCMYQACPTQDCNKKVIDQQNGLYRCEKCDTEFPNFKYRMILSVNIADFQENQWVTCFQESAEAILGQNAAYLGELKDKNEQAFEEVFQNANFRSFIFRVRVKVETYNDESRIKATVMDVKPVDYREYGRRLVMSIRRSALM
Chain of RPA WT (RPA70-RPA32-RPA14) (human) (P15927 whole entry, chain 2 of 3): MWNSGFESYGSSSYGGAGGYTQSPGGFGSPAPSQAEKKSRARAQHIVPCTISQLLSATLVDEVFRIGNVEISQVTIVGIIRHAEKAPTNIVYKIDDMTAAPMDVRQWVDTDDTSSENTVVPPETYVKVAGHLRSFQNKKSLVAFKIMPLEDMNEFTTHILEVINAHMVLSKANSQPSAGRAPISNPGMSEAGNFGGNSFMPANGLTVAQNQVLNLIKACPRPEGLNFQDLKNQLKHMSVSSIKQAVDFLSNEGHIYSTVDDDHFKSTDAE
Chain of RPA WT (RPA70-RPA32-RPA14) (human) (P35244 whole entry, chain 3 of 3): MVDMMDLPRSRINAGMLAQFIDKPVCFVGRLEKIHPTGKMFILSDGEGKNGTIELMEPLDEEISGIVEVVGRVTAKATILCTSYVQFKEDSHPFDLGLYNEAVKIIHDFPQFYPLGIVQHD

[2] = molecular target: CST (CTC1-STN1-TEN1) (human) (UniProt Q2NKJ3+Q9H668+Q86WV5); conditions: FA: 200 mM NaCl, KCl or LiCl, 20 mM HEPES pH 7.4, 1 mM DTT, 22-25 C, 375 or 750 pM oligo, Kd,app +/- SEM, EMSA: 20 mM HEPES pH 7.4, 200 mM KCl, 1 nM 32P oligo
Chain of CST (CTC1-STN1-TEN1) (human) (Q2NKJ3 whole entry, chain 1 of 3): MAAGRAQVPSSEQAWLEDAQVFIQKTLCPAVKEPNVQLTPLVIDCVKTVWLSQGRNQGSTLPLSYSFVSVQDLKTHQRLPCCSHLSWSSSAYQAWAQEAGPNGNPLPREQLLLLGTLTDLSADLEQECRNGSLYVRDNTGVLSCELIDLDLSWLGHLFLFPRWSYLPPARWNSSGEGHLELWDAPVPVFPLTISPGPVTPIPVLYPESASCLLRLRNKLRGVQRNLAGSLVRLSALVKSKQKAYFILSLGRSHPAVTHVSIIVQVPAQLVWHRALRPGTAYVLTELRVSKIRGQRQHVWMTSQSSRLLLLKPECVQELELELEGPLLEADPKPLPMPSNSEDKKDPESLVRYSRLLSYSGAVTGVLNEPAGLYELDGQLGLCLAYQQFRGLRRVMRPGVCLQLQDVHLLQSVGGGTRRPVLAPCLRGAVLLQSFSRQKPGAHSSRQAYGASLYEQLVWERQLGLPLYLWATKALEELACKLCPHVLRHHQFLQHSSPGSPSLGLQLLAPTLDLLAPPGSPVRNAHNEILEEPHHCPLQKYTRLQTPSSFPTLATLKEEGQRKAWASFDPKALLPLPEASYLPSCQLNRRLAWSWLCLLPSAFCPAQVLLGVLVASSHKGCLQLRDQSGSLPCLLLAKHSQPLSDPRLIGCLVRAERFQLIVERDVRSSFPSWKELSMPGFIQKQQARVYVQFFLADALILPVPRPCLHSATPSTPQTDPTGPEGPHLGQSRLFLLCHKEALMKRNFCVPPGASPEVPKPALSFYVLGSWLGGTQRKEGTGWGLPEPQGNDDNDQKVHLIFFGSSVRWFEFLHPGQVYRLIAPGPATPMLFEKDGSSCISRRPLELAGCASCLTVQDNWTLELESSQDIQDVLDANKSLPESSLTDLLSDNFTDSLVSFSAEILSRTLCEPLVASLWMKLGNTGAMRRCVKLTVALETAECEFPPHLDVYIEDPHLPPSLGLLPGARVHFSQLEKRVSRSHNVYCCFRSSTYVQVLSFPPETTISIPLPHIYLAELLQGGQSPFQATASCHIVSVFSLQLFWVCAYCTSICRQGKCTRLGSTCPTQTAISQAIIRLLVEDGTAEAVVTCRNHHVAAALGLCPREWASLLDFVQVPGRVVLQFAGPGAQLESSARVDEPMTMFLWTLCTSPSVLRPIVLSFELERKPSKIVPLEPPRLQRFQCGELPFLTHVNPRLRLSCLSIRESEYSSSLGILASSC
Chain of CST (CTC1-STN1-TEN1) (human) (Q9H668 whole entry, chain 2 of 3): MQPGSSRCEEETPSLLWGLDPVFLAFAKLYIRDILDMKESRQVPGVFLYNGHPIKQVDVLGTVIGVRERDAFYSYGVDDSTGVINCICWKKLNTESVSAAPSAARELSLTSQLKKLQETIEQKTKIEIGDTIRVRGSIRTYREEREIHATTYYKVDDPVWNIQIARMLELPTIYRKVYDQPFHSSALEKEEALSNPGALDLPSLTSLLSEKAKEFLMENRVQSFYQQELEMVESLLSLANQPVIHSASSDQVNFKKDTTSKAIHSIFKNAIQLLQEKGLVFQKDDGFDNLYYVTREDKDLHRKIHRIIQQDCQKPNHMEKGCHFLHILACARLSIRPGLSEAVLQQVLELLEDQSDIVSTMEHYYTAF
Chain of CST (CTC1-STN1-TEN1) (human) (Q86WV5 whole entry, chain 3 of 3): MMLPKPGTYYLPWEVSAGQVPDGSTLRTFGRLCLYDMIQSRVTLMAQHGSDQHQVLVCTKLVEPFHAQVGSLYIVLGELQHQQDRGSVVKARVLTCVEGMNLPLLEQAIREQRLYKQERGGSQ

[3] = system: RPA Aro4 (human); conditions: FA: 200 mM NaCl, KCl or LiCl, 20 mM HEPES pH 7.4, 1 mM DTT, 22-25 C, 375 or 750 pM oligo, Kd,app +/- SEM; EMSA: 20 mM HEPES pH 7.4, 200 mM KCl, 1 nM 32P oligo
[4] = system: RPA AroB (human); conditions: FA: 200 mM NaCl, KCl or LiCl, 20 mM HEPES pH 7.4, 1 mM DTT, 22-25 C, 375 or 750 pM oligo, Kd,app +/- SEM; EMSA: 20 mM HEPES pH 7.4, 200 mM KCl, 1 nM 32P oligo
[5] = system: RPA Aro1 (human); conditions: FA: 200 mM NaCl, KCl or LiCl, 20 mM HEPES pH 7.4, 1 mM DTT, 22-25 C, 375 or 750 pM oligo, Kd,app +/- SEM; EMSA: 20 mM HEPES pH 7.4, 200 mM KCl, 1 nM 32P oligo
[6] = system: RPA Aro3 (human); conditions: FA: 200 mM NaCl, KCl or LiCl, 20 mM HEPES pH 7.4, 1 mM DTT, 22-25 C, 375 or 750 pM oligo, Kd,app +/- SEM; EMSA: 20 mM HEPES pH 7.4, 200 mM KCl, 1 nM 32P oligo
[7] = system: RPA AroA (human); conditions: FA: 200 mM NaCl, KCl or LiCl, 20 mM HEPES pH 7.4, 1 mM DTT, 22-25 C, 375 or 750 pM oligo, Kd,app +/- SEM; EMSA: 20 mM HEPES pH 7.4, 200 mM KCl, 1 nM 32P oligo
[8] = system: RPA AroC (human); conditions: FA: 200 mM NaCl, KCl or LiCl, 20 mM HEPES pH 7.4, 1 mM DTT, 22-25 C, 375 or 750 pM oligo, Kd,app +/- SEM; EMSA: 20 mM HEPES pH 7.4, 200 mM KCl, 1 nM 32P oligo

| Substance | Kd [1] | Kd ([2]; 200 mM LiCl) | Kd [2] | Kd [3] | Kd [4] | Kd [5] | Kd [6] | Kd [7] | Kd [8] | Kd ([2]; 200 mM KCl, printed >=, incomplete curve) |
| --- | --- | --- | --- | --- | --- | --- | --- | --- | --- | --- |
| Tel60 | 0.79 nM and 0.69 nM and 0.8 nM | 1.2 nM | 10.6 nM and 9 nM | – | – | – | – | – | – | – |
| Tel18 | 0.73 nM and 0.5 nM and 0.66 nM | 6.7 nM | 7.7 nM and 9.3 nM | 3.5 nM and 9.1 nM and 5.1 nM | 0.5 nM and 0.66 nM and 0.45 nM | 4.7 nM and 2.5 nM and 5.6 nM | 0.24 nM and 0.56 nM and 0.65 nM | 0.79 nM and 0.34 nM and 0.36 nM | 0.59 nM and 0.26 nM and 0.49 nM | – |
| Tel22 | 1.23 nM and 1.99 nM and 0.35 nM | 6.7 nM | 106 nM | – | – | – | – | 2.4 nM and 2.5 nM and 0.36 nM | – | > 340 nM |
| Tel30 | 0.96 nM and 0.81 nM and 0.32 nM | 5.2 nM | 67 nM and 112 nM | – | 1.07 nM and 1.9 nM and 0.36 nM | – | – | 0.48 nM and 0.77 nM and 0.29 nM | 0.62 nM and 1.62 nM and 0.28 nM | – |
| Tel40 | 1.3 nM and 1.1 nM and 0.9 nM | 0.73 nM | 0.74 nM and 1.1 nM | – | – | – | – | – | – | – |
